Kd data for 66 sequences are collected here from the Immune Epitope Database (IEDB).

Some targets named below: HLA-A*02:03; HLA-A*02:02; HLA-A*02:06; HLA-A*11:01; HLA-A*33:01; HLA-A*31:01; HLA-A*68:01; HLA-A*03:01.
Common to all, as to test: IEDB peptide-MHC binding, purified MHC/competitive/radioactivity; filed as Kd, often an IC50 or EC50 that approximates it; ≥ and ≤ were set here for values at or beyond the usual limits of such assays
The mark [1] stands for this setting: source organism: Vaccinia virus WR.
Setting [2] is: source organism: Mammarenavirus whitewaterense.
Where [3] appears, read: source organism: Dengue virus 4 Philippines/H241/1956.
Where [4] appears, read: source organism: SARS coronavirus Tor2.
The mark [5] stands for this setting: source organism: Mammarenavirus tacaribeense.

Where only a bound is given, the exact number is not on record here.

A word on the Kd: it is the constant that tells how readily two partners part at equilibrium.

As for DVQRTRCKYV, the Kd with HLA-A*02:03 (setting [1]) came out at 6470 nM; with HLA-A*02:02 (setting [1]), 1070 nM; with HLA-A*02:06 (setting [1]), 9510 nM.
As to LNASYITPYV, the Kd in the experiment with HLA-A*02:03 (setting [2]) is 1070 nM; in the experiment with HLA-A*02:02 (setting [2]) it was 33.2 nM; with HLA-A*02:06 (setting [2]) it was 37.7 nM.
As to ELVMDKNHAI, the Kd with HLA-A*02:03 (setting [1]) was ≥ 70400 nM; with HLA-A*02:02 (setting [1]) it was 14200 nM; in the experiment with HLA-A*02:06 (setting [1]), ≥ 69800 nM.
Taken in the same sequence, the figures for SILNNPVDT were ≥ 30600 nM, ≥ 47100 nM and 14200 nM.
For KVTVPTNDHI the same measures were 1240 nM, 4710 nM and 3600 nM.
Regarding DITNILGGVL, the Kd in the experiment with HLA-A*02:03 (setting [1]) stood at 3680 nM; in the experiment with HLA-A*02:02 (setting [1]) it was 12300 nM; with HLA-A*02:06 (setting [1]) it was 18900 nM.
Taken in the same sequence, the figures for RLRYNLCKYL were 0.304 nM, 261 nM and 15700 nM.
Consider SLSNLDFRL, for which the results for the Kd with HLA-A*02:03 (setting [1]), with HLA-A*02:02 (setting [1]) and with HLA-A*02:06 (setting [1]) were 1760 nM, 1310 nM and 1380 nM, respectively.
For the sequence NVIGLIVIL, the Kd amounted to 2400 nM with HLA-A*02:03 (setting [1]), 84.9 nM with HLA-A*02:02 (setting [1]) and 15.1 nM with HLA-A*02:06 (setting [1]).
For SIVCIVAAV the same measures were 2.82 nM, 3.91 nM and 3.54 nM.
YIALCKVTV: the Kd with HLA-A*02:03 (setting [1]) was 24 nM; with HLA-A*02:02 (setting [1]), 12.2 nM; with HLA-A*02:06 (setting [1]), 18.8 nM.
Take NLLEQLIENI: the Kd in the experiment with HLA-A*02:03 (setting [1]) came out at 1440 nM; with HLA-A*02:02 (setting [1]), 836 nM; with HLA-A*02:06 (setting [1]), 396 nM.
Turning to LIASLVMLLV, the Kd in the experiment with HLA-A*02:03 (setting [3]) was determined as 64.7 nM.
On to KMFESTYRGA, for which the Kd in the experiment with HLA-A*02:03 (source organism: Dengue virus 4 Dominica/814669/1981) was determined as 10.4 nM.
As to ELEKCTSEI, the Kd with HLA-A*02:03 (setting [1]) is ≥ 56000 nM; with HLA-A*02:02 (setting [1]), ≥ 21100 nM; with HLA-A*02:06 (setting [1]), ≥ 57900 nM.
For the sequence FLCLFLLPSL, the Kd with HLA-A*02:03 (setting [4]) was 2.86 nM; with HLA-A*02:02 (setting [4]), 0.531 nM; in the experiment with HLA-A*02:06 (setting [4]) it was 0.373 nM.
Consider IMRNFLRSIA, for which the Kd with HLA-A*02:03 (setting [1]) came out at 122 nM; with HLA-A*02:02 (setting [1]), 59.9 nM; with HLA-A*02:06 (setting [1]) it was 544 nM.
For the sequence SQAKKPEVRI, the values for the Kd with HLA-A*02:03 (setting [1]), with HLA-A*02:02 (setting [1]) and with HLA-A*02:06 (setting [1]) were 2370 nM, 10700 nM and 5860 nM, respectively.
RIITILQDIV: the Kd with HLA-A*02:03 (setting [1]) worked out at 209 nM; with HLA-A*02:02 (setting [1]), 595 nM; with HLA-A*02:06 (setting [1]) it was 94.8 nM.
As to YVGDTSMMVI, the Kd was found to be 220 nM with HLA-A*02:03 (setting [1]), 408 nM with HLA-A*02:02 (setting [1]) and 324 nM in the experiment with HLA-A*02:06 (setting [1]).
In the case of QIMECSRML, the results for the Kd in the experiment with HLA-A*02:03 (setting [1]), in the experiment with HLA-A*02:02 (setting [1]) and in the experiment with HLA-A*02:06 (setting [1]) were 1380 nM, 620 nM and 948 nM, respectively.
Taken in the same sequence, the figures for ALTDVEKRIL were 127 nM, 96.9 nM and 934 nM.
Taken in the same sequence, the figures for KIQLFSDFTI were ≥ 70400 nM, ≥ 70000 nM and ≥ 69800 nM.
On to LAYYNSCMLT, for which the Kd turned out to be 15.9 nM with HLA-A*02:03 (setting [1]), 12.1 nM with HLA-A*02:02 (setting [1]) and 86.2 nM in the experiment with HLA-A*02:06 (setting [1]).
Taken in the same sequence, the figures for LTNAISSRV were 18.6 nM, 146 nM and 145 nM.
Taken in the same sequence, the figures for DIKYISRDEL were 9570 nM, 2550 nM and 2060 nM.
Taken in the same sequence, the figures for NVSRVVECLT were 14300 nM, 4660 nM and ≥ 10000 nM.
For the sequence NVQSLIKFI, the Kd with HLA-A*02:03 (setting [1]) was 6020 nM; with HLA-A*02:02 (setting [1]), 12900 nM; with HLA-A*02:06 (setting [1]), 10500 nM.
For KIDILQMREI the same measures were 414 nM, 1280 nM and 875 nM.
On to ILNAHEDGV, for which, in the experiment with HLA-A*02:03 (setting [3]), the Kd was found to be 93.2 nM.
As to MNNVVQALT, the Kd with HLA-A*02:03 (setting [5]) was ≥ 21500 nM; in the experiment with HLA-A*02:02 (setting [5]), 2280 nM; with HLA-A*02:06 (setting [5]), ≥ 77000 nM.
In the case of FMECNLNELV, the dissociation constant (Kd) with HLA-A*02:03 (source organism: Homo sapiens) was 70.2 nM.
NILGGVLHT: the Kd with HLA-A*02:03 (setting [1]) is ≥ 20600 nM; with HLA-A*02:02 (setting [1]), ≥ 77800 nM; with HLA-A*02:06 (setting [1]) it was 9960 nM.
Taken in the same sequence, the figures for AILHNIYRL were 814 nM, 106 nM and 43.8 nM.
Turning to SLGLILLKMV, the Kd with HLA-A*02:03 (setting [3]) is 58.2 nM.
As to TVGMSIVCIV, the results for the Kd with HLA-A*02:03 (setting [1]), in the experiment with HLA-A*02:02 (setting [1]) and in the experiment with HLA-A*02:06 (setting [1]) were 468 nM, 528 nM and 200 nM, respectively.
With VQYENLKYTV, in the experiment with HLA-A*02:06 (source organism: Dengue virus 3 Martinique/1243/1999), the Kd is 61 nM.
As to GLYIPGTSV, the Kd with HLA-A*02:03 (setting [1]) amounted to 16.6 nM; in the experiment with HLA-A*02:02 (setting [1]) it was 111 nM; in the experiment with HLA-A*02:06 (setting [1]), 1740 nM.
Taken in the same sequence, the figures for NLETYTRPEI were 1500 nM, 539 nM and 636 nM.
For WLRAKRKPAM, the Kd with HLA-A*02:03 (setting [1]) was ≥ 20100 nM; in the experiment with HLA-A*02:02 (setting [1]), 4670 nM; with HLA-A*02:06 (setting [1]), 11900 nM.
As for YTFAISYCRA, the values for the Kd with HLA-A*02:03 (setting [1]), in the experiment with HLA-A*02:02 (setting [1]) and with HLA-A*02:06 (setting [1]) were 37.6 nM, 325 nM and 37.4 nM, respectively.
In the case of EMVEYLENQL, the values for the Kd with HLA-A*02:03 (setting [1]), in the experiment with HLA-A*02:02 (setting [1]) and with HLA-A*02:06 (setting [1]) were 209 nM, 212 nM and 420 nM, respectively.
With NIYRLFTRCA, the Kd with HLA-A*02:03 (setting [1]) was 138 nM; with HLA-A*02:02 (setting [1]) it was 9890 nM; in the experiment with HLA-A*02:06 (setting [1]), 22.9 nM.
For KINNNRIVAM the same measures were 1300 nM, 9120 nM and 3190 nM.
As for SLIGLTARA, in the experiment with HLA-A*02:03 (source organism: Dengue virus 1 Brazil/97-11/1997), the Kd came to 4.13 nM.
Take DIIDLLLPST: the Kd worked out at 6590 nM in the experiment with HLA-A*02:03 (setting [1]), 14500 nM with HLA-A*02:02 (setting [1]) and 284 nM with HLA-A*02:06 (setting [1]).
As for NQAAVLMGL, in the experiment with HLA-A*02:06 (setting [3]), the Kd is 6.98 nM.
EMQLKIDKLT: the Kd in the experiment with HLA-A*02:03 (setting [1]) is 6820 nM; in the experiment with HLA-A*02:02 (setting [1]) it was 9660 nM; in the experiment with HLA-A*02:06 (setting [1]), ≥ 69800 nM.
Taken in the same sequence, the figures for ALWDSNFFT were ≥ 28200 nM, 1060 nM and ≥ 23100 nM.
Consider IMEIVSHLRA, for which the Kd with HLA-A*02:03 (setting [1]) stood at 396 nM; in the experiment with HLA-A*02:02 (setting [1]), 955 nM; with HLA-A*02:06 (setting [1]) it was 4410 nM.
For EIDVSEVKT the same measures were ≥ 78100 nM, ≥ 46000 nM and ≥ 77100 nM.
As to MLIIFWFSL, the Kd is 13000 nM in the experiment with HLA-A*02:03 (setting [4]), 132 nM with HLA-A*02:02 (setting [4]) and 490 nM with HLA-A*02:06 (setting [4]).
For the sequence ETIQKDINI, the Kd with HLA-A*02:03 (setting [1]) was ≥ 50800 nM; with HLA-A*02:02 (setting [1]) it was ≥ 36600 nM; in the experiment with HLA-A*02:06 (setting [1]) it was ≥ 34900 nM.
Regarding LVLLILMTAR, the dissociation constant Kd in the experiment with HLA-A*11:01 (setting [4]) was 8740 nM; in the experiment with HLA-A*33:01 (setting [4]) it was 5500 nM; in the experiment with HLA-A*31:01 (setting [4]), 918 nM; with HLA-A*68:01 (setting [4]) it was 6750 nM; with HLA-A*03:01 (setting [4]), 3780 nM.
For AAAYFVGYLK the same measures were 0.439 nM, 5610 nM, 282 nM, 1.08 nM and 9.39 nM.
With ILKKLSSIK, the Kd is 1090 nM in the experiment with HLA-A*11:01 (setting [1]); 1560 nM with HLA-A*33:01 (setting [1]); 3180 nM with HLA-A*31:01 (setting [1]); 4810 nM with HLA-A*68:01 (setting [1]); 4.69 nM with HLA-A*03:01 (setting [1]).
For STQSVLCVK the same measures were 0.756 nM, 15600 nM, 115 nM, 3.14 nM and 149 nM.
Taken in the same sequence, the figures for HIVCSKTVK were 1590 nM, ≥ 32800 nM, 623 nM, 118 nM and 291 nM.
As to DAKNDDWKK, the Kd with HLA-A*11:01 (setting [1]) is 3100 nM; with HLA-A*33:01 (setting [1]) it was 2830 nM; in the experiment with HLA-A*31:01 (setting [1]), ≥ 36700 nM; in the experiment with HLA-A*68:01 (setting [1]) it was 104 nM; in the experiment with HLA-A*03:01 (setting [1]), 8230 nM.
Taken in the same sequence, the figures for ELYDTSPTK were 90.2 nM, ≥ 43500 nM, ≥ 77900 nM, 4.11 nM and 10.5 nM.
For TIPIGMQFDK the same measures were 4.02 nM, ≥ 70000 nM, 17400 nM, 38.1 nM and 6040 nM.
For HIASKINNNR the same measures were 4030 nM, 5950 nM, 959 nM, 18.8 nM and 1960 nM.
As to TLQGPPGTGK, the Kd with HLA-A*11:01 (setting [4]) came out at 264 nM; with HLA-A*33:01 (setting [4]), 8190 nM; with HLA-A*31:01 (setting [4]), 3290 nM; in the experiment with HLA-A*68:01 (setting [4]), 225 nM; with HLA-A*03:01 (setting [4]), 282 nM.
For GANYLGKPK the same measures were 1080 nM, ≥ 77700 nM, 1480 nM, 3450 nM and 510 nM.
Take IQFMMSRRR: the Kd in the experiment with HLA-A*11:01 (setting [4]) amounted to 369 nM; with HLA-A*33:01 (setting [4]), 1440 nM; with HLA-A*31:01 (setting [4]), 4.4 nM; with HLA-A*68:01 (setting [4]), 1490 nM; with HLA-A*03:01 (setting [4]) it was 353 nM.
As for SSVQLSNNKY, the Kd with HLA-A*11:01 (setting [1]) is 141 nM; in the experiment with HLA-A*33:01 (setting [1]), 10100 nM; in the experiment with HLA-A*31:01 (setting [1]), 2870 nM; in the experiment with HLA-A*68:01 (setting [1]) it was 65.7 nM; with HLA-A*03:01 (setting [1]), 4650 nM.
